{"source": "patent US20090029376", "assay_in_all_cases": "cleavage_in_vitro", "key": {"[1]": {"tested_on": "T1, SspI (Sphaerotilus species)", "T1 sequence": "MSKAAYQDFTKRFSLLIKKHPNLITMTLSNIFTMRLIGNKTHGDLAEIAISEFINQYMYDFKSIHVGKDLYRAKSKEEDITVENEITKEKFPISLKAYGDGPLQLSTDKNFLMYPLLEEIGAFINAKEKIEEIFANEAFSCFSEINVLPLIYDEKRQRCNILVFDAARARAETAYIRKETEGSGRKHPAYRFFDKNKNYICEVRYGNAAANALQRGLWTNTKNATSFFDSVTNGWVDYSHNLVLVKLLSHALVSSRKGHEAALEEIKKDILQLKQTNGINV", "conditions": "NEB4, 37 C"}, "[2]": {"tested_on": "T2, BstXI-HF N65A (Bacillus stearothermophilus)", "T2 sequence": "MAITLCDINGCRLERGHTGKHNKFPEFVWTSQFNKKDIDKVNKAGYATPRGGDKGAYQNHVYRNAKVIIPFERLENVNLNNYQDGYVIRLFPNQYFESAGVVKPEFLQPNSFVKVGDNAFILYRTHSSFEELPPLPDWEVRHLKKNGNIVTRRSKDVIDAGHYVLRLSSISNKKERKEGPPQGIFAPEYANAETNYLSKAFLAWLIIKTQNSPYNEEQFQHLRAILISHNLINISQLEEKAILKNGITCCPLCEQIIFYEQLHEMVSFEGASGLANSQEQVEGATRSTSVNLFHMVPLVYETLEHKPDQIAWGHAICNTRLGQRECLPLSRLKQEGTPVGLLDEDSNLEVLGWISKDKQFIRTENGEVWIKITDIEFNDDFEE", "conditions": "NEB4, 55 C"}, "[3]": {"tested_on": "T3, BsmBI (Bacillus stearothermophilus)", "T3 sequence": "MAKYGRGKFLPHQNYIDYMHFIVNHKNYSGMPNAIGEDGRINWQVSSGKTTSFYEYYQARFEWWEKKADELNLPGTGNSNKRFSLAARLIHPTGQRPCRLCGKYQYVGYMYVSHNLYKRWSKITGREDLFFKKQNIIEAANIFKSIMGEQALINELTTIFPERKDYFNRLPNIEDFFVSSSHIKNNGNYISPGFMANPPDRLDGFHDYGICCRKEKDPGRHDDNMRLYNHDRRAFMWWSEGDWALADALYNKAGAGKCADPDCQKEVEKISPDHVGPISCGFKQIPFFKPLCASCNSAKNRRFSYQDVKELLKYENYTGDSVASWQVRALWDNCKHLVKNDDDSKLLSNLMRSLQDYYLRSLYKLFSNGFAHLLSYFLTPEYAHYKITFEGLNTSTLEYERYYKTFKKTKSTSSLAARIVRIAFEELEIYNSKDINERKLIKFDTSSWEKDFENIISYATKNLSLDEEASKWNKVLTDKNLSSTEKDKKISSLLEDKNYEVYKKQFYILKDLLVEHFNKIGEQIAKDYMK", "conditions": "NEB4, 55 C"}, "[4]": {"target": "EcoRI (Escherichia coli RY13) (UniProt P00642)", "conditions": "NEB4, 37 C"}, "[5]": {"target": "T4, PstI-HF D91A (Providencia stuartii 164) (UniProt P00640)", "T4 sequence": "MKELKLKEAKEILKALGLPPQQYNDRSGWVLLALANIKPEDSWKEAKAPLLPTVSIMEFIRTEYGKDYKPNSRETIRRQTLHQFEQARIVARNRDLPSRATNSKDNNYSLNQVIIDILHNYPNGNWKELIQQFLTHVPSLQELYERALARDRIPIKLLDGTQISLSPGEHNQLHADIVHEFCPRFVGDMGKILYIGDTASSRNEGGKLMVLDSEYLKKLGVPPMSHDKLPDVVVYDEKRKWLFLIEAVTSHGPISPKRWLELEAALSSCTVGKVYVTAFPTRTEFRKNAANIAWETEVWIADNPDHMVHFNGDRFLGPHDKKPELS", "conditions": "NEB4, 37 C"}, "[6]": {"tested_on": "T5, SphI (Streptomyces phaeochromogenes)", "T5 sequence": "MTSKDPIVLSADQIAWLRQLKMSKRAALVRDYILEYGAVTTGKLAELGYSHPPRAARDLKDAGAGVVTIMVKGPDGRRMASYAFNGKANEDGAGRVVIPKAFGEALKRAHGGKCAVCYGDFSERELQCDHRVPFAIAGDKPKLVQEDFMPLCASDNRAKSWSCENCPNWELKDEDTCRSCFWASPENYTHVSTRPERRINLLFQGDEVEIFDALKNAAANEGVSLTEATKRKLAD", "conditions": "NEB4, 37 C"}, "[7]": {"target": "T6, PstI (Providencia stuartii 164) (UniProt P00640)", "T6 sequence": "T4 sequence with A91D", "conditions": "NEB4, 37 C"}, "[8]": {"target": "T7, ScaI-HF H193A/S201F (Streptomyces caespitosus) (UniProt O52691)", "T7 sequence": "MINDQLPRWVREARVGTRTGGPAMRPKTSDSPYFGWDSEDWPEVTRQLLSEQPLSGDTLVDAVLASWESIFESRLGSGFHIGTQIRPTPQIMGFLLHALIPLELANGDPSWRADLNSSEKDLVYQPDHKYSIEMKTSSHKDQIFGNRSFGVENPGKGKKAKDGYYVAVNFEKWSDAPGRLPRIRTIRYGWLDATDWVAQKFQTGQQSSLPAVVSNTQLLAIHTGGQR", "conditions": "NEB2, 37 C"}, "[9]": {"target": "T8, BamHI (Bacillus amyloliquefaciens) (UniProt P23940)", "T8 sequence": "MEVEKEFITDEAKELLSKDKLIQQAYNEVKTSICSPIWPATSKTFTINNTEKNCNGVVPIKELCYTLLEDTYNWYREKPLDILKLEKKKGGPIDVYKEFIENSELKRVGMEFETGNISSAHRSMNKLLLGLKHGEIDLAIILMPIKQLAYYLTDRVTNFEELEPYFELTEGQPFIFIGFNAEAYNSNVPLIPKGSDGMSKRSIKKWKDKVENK", "conditions": "NEB4, 37 C"}}, "note": "Positions count from the first letter of the chain named.", "data": [{"substance": "lambda phage DNA", "values": [{"measurement": "activity (fidelity index)", "setting": "[1]", "value": 16}, {"measurement": "activity (fidelity index)", "setting": "[2]", "value": "> 250"}, {"measurement": "activity (fidelity index)", "setting": "[3]", "value": 4}, {"measurement": "activity (fidelity index)", "setting": "[4]", "value": 4}, {"measurement": "activity (fidelity index)", "setting": "[5]", "value": "> 2000"}, {"measurement": "activity (fidelity index)", "setting": "[6]", "value": 16}, {"measurement": "activity (fidelity index)", "setting": "[7]", "value": 8}, {"measurement": "activity (fidelity index)", "setting": "[8]", "value": 120}, {"measurement": "activity (fidelity index)", "setting": "[9]", "value": 4}]}]}
